Results from the supplement of paper PMC9170038.

tested on: MS2 coat protein; assay: apparent KD of MS2 coat protein; higher = weaker reporter binding; details: Eterna round: R107; input ligand: arginine 13.2 mM
Procedure: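 RNA-MaP round R107: designed RNA switches with theophylline, tryptophan, arginine or FMN aptamers are transcribed on-chip within common flanks. They are titrated with SNAP-549-labelled MS2 coat protein in RNA-MaP buffer (100 mM Tris pH 7.5, 80 mM KCl, 4 mM MgCl2), without ligand or with the indicated ligand. Median apparent KD per design.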

Going from “AAACCAAGGGAUGGGUGCCUUGGUAGUGAUACCAGCCUGGAAACAGGCCCUUGGCAGCACAUGAGGAUCACCCAUGUGAAAUAAU [TheoAX 18#OpenEnded]” to “GGAUAGGACAGAAGGAGCGACAUGGCGACGAAAGUCGAAACUUCACAUGAGGAUCACCCAUGUCAGGUAGGUCGCUGUCCUAUCG [ArgXB 7 #MS2Gate #StaticStem]”, the “apparent KD of MS2 coat protein” value rises from 22.9 nM to 48.8 nM (2.1-fold).

Compared with “CUUCAACAUGAGGAUCACCCAUGUAGUGAUACCAGUCACUCAUACGACCCUUGGCAGCACAUUUUCUGUCGGCAUGUAGACGAUC [theeternabot_sameState_MS2_Theo_A_33]”, “UAGACGGCCGGAAGGAGCGGUACAUGAGGAUCACCCAUGUAUCUCUGGGCAUCCGUAGAGUGCCAGGUAGGUCGCCGGUUGCGGG [XArg-B22]” is 6-fold lower in “apparent KD of MS2 coat protein” value: 73.6 nM for the first, 12.3 nM for the second.

First: UGUAUGGACUGAAGGAGCGCCUCAAAAUAACAUGAGGAUCACCCAUGUAGGCGAAAGCCUGGGCAGGUAGGUCGCAGUCCAUACU [ArgBX 2 #StaticStem #MS2Late]
Second: CCCAGUUAUAACAAAGGAAUAAUACUCGAAGGAGCGUCAUAGUAGGCAGGUAGGUCGCGAGACAUGAGGAUCACCCAUGUAGAGA [qvvmullin]
The “apparent KD of MS2 coat protein” value of the first is 1.6-fold lower: 20.9 nM for the first, 34.3 nM for the second.

“AAGACGCCGGGAAGGAGCGCAUCCAAACCACACAUGAGGAUCACCCAUGUAUAAAUAUGCAUGCAGGUAGGUCGCCCGAUGUCCC [Orbemative]” and “CCGACGAUGACUAUGGGUCAGGAGUGCGUACGAGGACCGGUACGGCCGCCACUCGAGGAGUGGGACAUGAGGAUCACCCAUGUGG [#19 Exclusion Tryptophan A]” are within 1.5-fold of each other in “apparent KD of MS2 coat protein” value: 32.4 nM for the first, 44.6 nM for the second.

First: ACGUAAUGCAGAAGGAGCGUCAUUCUCUUACAUGAGGAUCACCCAUGUUACAUGGUUUUAUGACAGGUAGGUCGCUGAAGUACGA [JR_SSArginiB_Sub004]
Second: UACCCAUGAGUUGGAAAAGCUCAUGGGUAUCGAGGACCGGUACGGCCGCCACUCGGCUGUACAUGAGGAUCACCCAUGUCAGGGU [#1 Same State - Tryptophan A Attempt #24 (HarryS)]
The “apparent KD of MS2 coat protein” value of the first is 2.4-fold higher: 71.4 nM for the first, 29.9 nM for the second.

Compared with “CCAUGCAGGUCGGCCGCCACUACACACAUGAGGAUCACCCAUGUAGUUACUGGGUGAAGUGGCAGUAGGACCGGGACCUGCACAU [Brourdmod19]”, “GUAUACAUGAGGAUCACCCAUGUACCAGAAGGAGCGCUGGAAACAGCAGGUAGGUCGCUGGUAGGUCCUCUAUCUAGACGUUCGG [EAA NP+V+V2 #4]” is 1.9-fold lower in “apparent KD of MS2 coat protein” value: 94.7 nM for the first, 49.9 nM for the second.

“CGUUGGUGUGGAGACAUAUUGAUGACUGAAGGAGCGGGAAUAAACCCAGGUAGGUCGCAGAGAUCCACAUGAGGAUCACCCAUGU [!0.R]” and “UGAUCCUGCAGGGAUACCAGCGCCGCUUGAUAACUGUGCACAUGAGGAUCACCCAUGUAGCGCCCUUGGCAGCCCAGCUAGAGGG [Same State Theophylline B GF23]” are within 1.5-fold of each other in “apparent KD of MS2 coat protein” value: 26.3 nM for the first, 21.8 nM for the second.

First: AAUAACAUGAGGAUCACCCAUGUAAAAGAUACCAGAGUGAUGAUCCUCCCUUGGCAGCUUAAUAACGCUAUUGGAAACAAUAGCG [Mat - Same State Theophlline A - Mod of Eli - D7]
Second: GCGUCGGUCGGAAGGAGCGACAUGAGGAUCACCCAUGUCUCCCGUUAUGGGAGUUCCUUAGGUCAGGUAGGUCGCCGACGGACGC [#1 Exclusion - Arginine B Attempt #19 (Inspired by Omei)]
The “apparent KD of MS2 coat protein” value of the first is 1.8-fold lower: 34.9 nM for the first, 63.8 nM for the second.

Compared with “AAUUUAAACGGAAGGAGCGUCACUUAAUAUCAACAUGAGGAUCACCCAUGUAAGGGUUGUAGACAGGUAGGUCGCCGUCAUUUGA [JR_AAArginiB_Sub023]”, “AACAACUAGUCGGCCGCCACUCAUAAUACAUGAGGAUCACCCAUGUAUACUUGGUUUUUAUAUUUGAGGACCGGGACAGUUGCAU [JR_Nu_ExcTryptoB_Sub026]” is 2.9-fold lower in “apparent KD of MS2 coat protein” value: 36.3 nM for the first, 12.5 nM for the second.

Compared with “ACAUGAGGAUCACCCAUGUUAUUUACCGAAGGAGCGGGUAUAUACCCAGGUAGGUCGCGGACAACAUGAGGAUCACCCACAUGAG [AstrosSSArgA#21]”, “GUACGAGUUGAAUGUGAGACUGGCGUGGAAGGAGCGCACGGAGGUGCAGGUAGGUCGCCACAUGAGGAUCACCCAUGUCGGCUAG [XARG-A 23]” is 2.1-fold lower in “apparent KD of MS2 coat protein” value: 45.5 nM for the first, 22.1 nM for the second.

Compared with “CAUGCGGCUAGUGAGCGUGGUGAGUAAAGGCGAGGACCGGUACGGCCGCCACUCGAGGCAAGACAUGAGGAUCACCCAUGUUGUA [theeternabot_exclusion_MS2_Trp_A_27]”, “ACAUGAGGAUCACCCAUGUAGCGUAGGGAAGGAGCGGAAUAGAGUCCAGGUAGGUCGCCCAUAUGAUGAUCUCACUUAUUAUCGA [#13 Same State - Arginine A]” is 3.6-fold higher in “apparent KD of MS2 coat protein” value: 10.8 nM for the first, 39.1 nM for the second.

“AUACAUGAGGAUCACCCAUGUGAUGGCCGGCGAGGACCGGUACGGCCGCCACUCGUGAUCCGUCCUGAAAGCAAAGCUCUCAACA [Esraleri]” and “GUUUUCAAGUCGGCCGCCACUGAUACAAUCCUCACCGGUUCACAUGAGGAUCACCCAUGUUCGCUCAGGACCGGGACCUUCUGUG [theeternabot_exclusion_MS2_Trp_B_3]” are within 1.5-fold of each other in “apparent KD of MS2 coat protein” value: 95 nM for the first, 77.4 nM for the second.

First: AGUGUUAUAACUGAUACCAGACUCUCAUGUUUACAUGAGGAUCACCCAUGUUAUUUCUUUGUCCCUUGGCAGCAGAAUUAACACA [JR_SSTheophyB_Sub010]
Second: AAUUUCGUAGGUAAAAGUUUAGAAACUGAAGGAGCGUGGUAUUACACAGGUAGGUCGCAGAUUUUACAUGAGGAUCACCCAUGUU [JR_SSArginiA_Sub008]
The “apparent KD of MS2 coat protein” value of the first is 7.4-fold higher: 152 nM for the first, 20.6 nM for the second.

“CGCAACCCACAUGAGGAUCACCCAUGUGAAGGAGCGCCGAAUAAGGCAGGUAGGUCGCGCAUGAAUAAAUCAUGUAGGAAGCGAA [XArg-A 6 V1&2]” and “UGGUACAUGAGGAUCACCCAUGUUCCAGAUACCAGUGUCCCGGUGCACCCUUGGCAGCUGGUGGUACAUGAGGAUCACCCAUGUG [Exclusion Theophylline A GF13]” are within 1.5-fold of each other in “apparent KD of MS2 coat protein” value: 20.6 nM for the first, 17.9 nM for the second.

“UAUAUAUACUCGGCCGCCACUGAGAGAGUCAUGUAAACAUGAGGAUCACCCAUGUAAUAUAUAUACAGGACCGGGAGUAUAUUAA [4.A]” and “GGUCAGCAGUCGGCCGCCACUAGUAUACAUGAGGAUCACCCAUGUCCCUUGCGCCUCACCGAUUUUAGGACCGGGACACUGCCUG [theeternabot_exclusion_MS2_Trp_B_9]” are within 1.5-fold of each other in “apparent KD of MS2 coat protein” value: 19.1 nM for the first, 25.1 nM for the second.

“AGUAGUUGACAAAAGUCAGCUACAAUUGAAGGAGCGGGUGGGUGCCCAGGUAGGUCGCAAUAACAUGAGGAUCACCCAUGUAUAA [ArgAS 2 #BothOrNeither #OpenEnded]” and “ACAUGAGGAUCACCCAUGUGUGUAAGUCCUCGAGGACCGGUACGGCCGCCACUCGAUUGAGUGUAAGUUGAAUGUAACAUUCAAC [whbob_SS_trypto A_2s10]” are within 1.5-fold of each other in “apparent KD of MS2 coat protein” value: 20 nM for the first, 16.4 nM for the second.

Going from “GUAUUAAGAAAACUUGAUACAGUGGGUGAACGAGGACCGGUACGGCCGCCACUCGGACAUGAGGAUCACCCAUGUCCAUGUGAAA [AstrosExyTryA#11]” to “UGUAUGUGAUCUGAUACCAGAGUGAAUAAACCUGAGGAUCACCCUGGUACGCGAAAGCGACUCCCUUGGCAGCAGAUCGCAUACU”, the “apparent KD of MS2 coat protein” value rises from 17.4 nM to 127 nM (7.3-fold).

“UAUAUAUAUCACUAACUGUUCUUGAGGUCUCGAGGACCGGUACGGCCGCCACUCGGGCCGCCUCACAUGAGGAUCACCCAUGUCC [XTryp A #3]” and “AUGCGGUGCGGAAGGAGCGAGUUUGCCUAUUACAUGAGGAUCACCCAUGUGGGUAAUGGGACUCAGGUAGGUCGCCGUUGUCGCA [Same State Arginine B GF 28]” are within 1.5-fold of each other in “apparent KD of MS2 coat protein” value: 38.9 nM for the first, 41.9 nM for the second.

First: ACCUGCGUUUGAUUCUAUCUGACGCAGGUUCGAGGACCGGUACGGCCGCCACUCGGACAUGAGGAUCACCCAUGUUUGACAUGGG [#03 Exclusion Tryptophan A]
Second: UGACGAUACCUGGAUACCAGCGACAUGAGGAUCACCCAUGUAUGAGGAUCAGCCAUGAUAUGCCCUUGGCAGCCACGAAAGUCUU [VUVMULLIN]
The “apparent KD of MS2 coat protein” value of the first is 1.7-fold higher: 27.8 nM for the first, 16.8 nM for the second.

“AGCCGUACGUACGGAAACGUACGUACGGCACGAGGACCGGUACGGCCGCCACUCGCCCACAUGAGGAUCACCCAUGUAGUGGGUG [The One Line]” was tested, and the “apparent KD of MS2 coat protein” value was 23.4 nM.

same assay, conditions: Eterna round: R107; input ligand: none

Compared with “AAACCAAGGGAUGGGUGCCUUGGUAGUGAUACCAGCCUGGAAACAGGCCCUUGGCAGCACAUGAGGAUCACCCAUGUGAAAUAAU [TheoAX 18#OpenEnded]”, “GGAUAGGACAGAAGGAGCGACAUGGCGACGAAAGUCGAAACUUCACAUGAGGAUCACCCAUGUCAGGUAGGUCGCUGUCCUAUCG [ArgXB 7 #MS2Gate #StaticStem]” is 1.8-fold higher in “apparent KD of MS2 coat protein” value: 27.7 nM for the first, 48.9 nM for the second.
